The values that follow come from the DeepSol protein solubility set.

The series can be described thus: soluble on expression in E. coli; label from the status in PepcDB or PDB records.
Regarding “MSLTGTSAIENVDSGNEESMIYQQVGDQTKVLTENDKYLVKCINSFNAEQLPIPSHVPFYSTIDGVNKQCSYNDNENLYVWNFINSKWDDSNYCKIPLNTDSSSSVNALPKSVFILPTNYDTDAEMLGLENSNSSNGIVGGVILVENTADATYLVYYEDMRSINHLSTSISKNMAHLLDLKLHSEEKVTLMLNSEPAGLVLATTEGRLMFITIRETNGKPCLTLKQQLIRPKGSGPLAFLSLFSSSNEIISLRNGPIIGKGERIVYVLTRNGRFQVWKLSVASKCVKMMDTNFYDSILDDLVELYPFAQGSLKILDTHPITNQPFSPQVVLTQISSSDETNFILSTIILDEQTNSFTIFSTYRLNTYIMKGNSALAKPKLCVPSSLQSATSKYFDLFIVFDKAVVITQTSSKLDSTYTLKRKWEDIISFNKEIQILAESNDASTVYLLTKGMGIISIIPKKERGETAYEESFVKSHLDQAIYFSSSSSNPVEFNLPGGLHLEQDEVENDLKTASEEILLSSSKYIPPLTDNIEKHLSLRLVYFRNLISFVKDNFAFSISPSKKLDIIENFELLNCFHKFNNFISSSNFELKSFWDRTLEANGNINEIELAVEKIHRFPDLFSTYLNTIIKELPSKSYTFKLTLADLIIETIYDAILEEGEKKLRYEFLSLDPLELNTHLPWFISIDILDSINQLFFDLKFSLEGQEKNANTQLLVIVKTLYYLFNQVRLFFLKENNMNDVSAQDFMKKCDQLYENNHLAWNQTLCELGLNEDSLEISEFYHDFVSLVETLDTLEAVESKALYEEYFARFGEQFAHTLFEYYVKKSKLQDLFYRFPEQQEFLVSFFKKYPQYGRVSWIFSIINYDYASAAATLYDITSGDRASAMTLESAQLYLNIAKLSTLAAHENHANVNLLGALKRIQANLDVVDGGKDLVEKLKRVDGAPSHLQANYKGTEFEKLFDLLVKKVTNGTMLQFVEVVILYSLIDDKECLYHALKLLAIDGDILELELKKFLISLIWRRSILFDIQNAYDTTSEDSTLHFVLKQYLEDELFRANCPLPTVGVLTEKTMFTESLLSSLFSNYELDTKKLQDILEKEYNTVESTAVDIEKRIIETISSLDKANDNSYTVNYHDLTIEYQNEGHHHHHH”, the “soluble on expression in E. coli” value is “soluble”.

For “MGSDKIHHHHHHMKTRQEALDYGLSFPNTYQEAPFHDPNWQLIRVKDSKKVFLWTYERNGFINLNVKVSPAWRDFWRDAFPSVIPGWHQNKDNWNTIILDGSIPDDAIKNMISDSYDLVTYNPTRLIYEAVKRIPKGCVATYAQVAELAGNKKMCRAVGNALHKNPNPDEIPCYRVVNAKGELSGAFAFGGADEQANRLRADGIEVIDGRVDLDKYGIRIVDDVIYTKTTVEPLT”, the “soluble on expression in E. coli” value is “not soluble”. Next, “MGSKTKKSFTVLLAFIMSFSVTGCFDKREIDDLVNPIAIGFDKGSNHSVRMTLQIAIPTKVAGGGEGGGGGGGEESVSYTTVEAPSIYSGLNMINSYVSKQLNMSQIKVLVFSEELAREGIEKYINALMRGREFRPHSYVIVARGTGNAAERYLRAVEPELESNPAKYYEMLLSAYTYTGFTANTSLTNFYKNMVSESTQPLAVLADISKFEKSDDINMDNSSYQEKGREFPLEGDFKAGDMPKVGTIKSEVMGLAVFNGSKMVGELDGEETQLQLMLEGNFGYSYVTIPDPEAEDYVVLLNIKQNRKPKRKVEIVDEKPHIKVNIYLEADILSIQSGVNYESLEKVKILEDAAEKFFEKGFLRMLKKTAKEFKSDIAGFGKEMKGKFLTWDEWTNFNWIEKYPDSEFEVDVDLKIRRPGLMLRTYPAAGTEVGEE”: “soluble”; “MGSDKIHHHHHHMQQSQTIYLMGTVIDVFVDHEESEKILEEVHQRLITYEQRFSANDSTSELMAVNQQAGQKPVSVHPELYQLIALGKKHSCDPASHLNVTIGPLVQTWRIGFKDARVPSEEEIKACLKKINPEKIHLNPLKQTVFLEEEGMKLDLGALAKGYIADLLIAYLKEVHVTSALINLGGNIVTLGPSTHQNKKWRIGIRNPQESRETISLLVEVANQSVVTSGIYERSLTEAGRVYHHLLDPTTGYPLETEMASLTIISDASVDGEIWTTRLFGYPIPEALEILNQLDGIEGVIITQDQQILYSSGLADTLHIIHS”: “not soluble”; “MSKGGWYLWHYLTLLKGKAYCDIYCKRITFNVKFRYVYRHFHWYSSSNNKFKQLEHHHHHH”: “not soluble”. Then “MGSDKIHHHHHHMHFLEKYRFLVIGHRGLPSLCLENTVESFNATFNAGMPAVELDVQYTADGVPVVFHDFDLNRLAGRNSRIGDLKWDDLSKIRLASGSTIPRLSDVLSAFENFNFFIEIKIEKFDNAERKLTDDVARMVIDRSMNDNVVMISFNASAMRYVRDHYDGIITGLDFESPDEADDAVNNNVALPYYAIIDEVFDKIKERPVIPWTVDSYSTAVRLKEMGCRGIITNTGDRFISLIE”, with “not soluble”. Then “IDENSFWIEGYFKETDLAGIAPNDRATVTLLMHDDVALEGKIKSIGFGIAKKDGTTGNDLLPTVNPNFQWIRLAQRIPVKVTLNEMPKDLQLRVGMTASIKIIKH”, with “not soluble”; and “MNFHHLAYWQDKALSLAIENRLFINGEYTAAAENETFETVDPVTQAPLAKIARGKSVDIDRAMSAARGVFERGDWSLSSPAKRKAVLNKLADLMEAHAEELALLETLDTGKPIRHSLRDDIPGAARAIRWYAEAIDKVYGEVATTSSHELAMIVREPVGVIAAIVPWNFPLLLTCWKLGPALAAGNSVILKPSEKSPLSAIRLAGLAKEAGLPDGVLNVVTGFGHEAGQALSRHNDIDAIAFTGSTRTGKQLLKDAGDSNMKRVWLEAGGKSANIVFADCPDLQQAASATAAGIFYNQGQVCIAGTRLLLEESIADEFLALLKQQAQNWQPGHPLDPATTMGTLIDCAHADSVHSFIREGESKGQLLLDGRNAGLAAAIGPTIFVDVDPNASLSREEIFGPVLVVTRFTSEEQALQLANDSQYGLGAAVWTRDLSRAHRMSRRLKAGSVFVNNYNDGDMTVPFGGYKQSGNGRDKSLHALEKFTELKTIWISLEA”, with “soluble”. For “MDTSLPSAILNNMVTATLILDDGLAIRYANPAAELLFSQSAKRIVEQSLSQLIQHASLDLALLTQPLQSGQSITDSDVTFVVDGRPLMLEVTVSPITWQRQLMLLVEMRKID”, the “soluble on expression in E. coli” value is “soluble”. Next, “MVVLHVKRGDESQFLLQAPGSTELEELTAQVARVYNGRLKVHRLCSEMEELAEHGVFLHPNMQGLTDEQIEELKLKDEWGEKCVPSGGSVFTKDEIGRRNGQAPNEKMKQVLKKTVEEAKAIVSKKQVEAGVFVTMEMVKDALDQLRGAVMIVYPMGLPPYDPIRMEFENKEDLSGTQAALEVIQESEAQLWWAAKELRRTKKLSDYVGKNEKTKIIVKIQQRGQGAPAREPVISSEEHKQLMLFYHRRQEELKKLEENDDDSCLNSPWADNTALKRHFHGVKDIKWRPR”: “soluble”; “MSEEWEPKIVGFCCNWCTYGGADTAGVGRMQYPPSIRIIRVMCSGRIEPSFILKAFKEGADGVFIGGCHLGDCHYDAGNYKWQRRVMMLYDMLDELGIGRERVLHEWISASEGEKFQTKMNEIYDRIKALGPCTLNENLK”: “not soluble”. Then “MLDRPHHTTADIIARCEALFSDLSFTAAREWKAAEPGRIVVGFLPYYAPRELVHAAGGLPLGIFGGGDQLEVIHGDAYYQSYICRIPRSTIELGVSGRLDFVDGMMFPSICDVIRNLSGMWKLMFPSKGARYIDLPHNFDDDLGGEFYVSELRETCEWLSTLTGKPITSDAIRASIAVFNDNRRLIRALYQLRADEPWNVPSSELYLLLRAGMVIPVEEHNQMLADYLAAVRLQQRPIKDNSRVVICGMFCEQPPLNLIKSIELSGCYIVDDDFILVTRWENSDVALDGDPLSNLASAYLHDSKSTPPKYEPDEAKKGLYLVDSVRKNRAEGVIFAMTSFCDPGLLERPMLQAVLKSHGIPQIAFKYAENSGQMQPIREQAGTFADSIKLWSGA”, with “not soluble”. In the case of “GPGSMSSFAPNVKICEDISHISSAARDIILAAIDARVDKSAPVVLALSGGSTPKRLYEELHEKDLTLLQQHAVQFILGDERLVATDDEQSNFSMATKALLRDVPISDVIAIEPSAALATSKDEKGGVDGAWAVAQDYEKKLRNRLPCTQVNGTDMSVPIVDIVLLGFGADGHTASIFPDSVAATDESHVVSVSFPSPTMNPKVWRVTLSKTVIQHAKHVVVLACGKDKNWVVHGVLAEAPTGPLPVSRFLRECRGSVTMLLDAGSGEGLSA”, the “soluble on expression in E. coli” value is given as “soluble”.
